Data as given in PMC6572768, “THETA system allows one-step isolation of tagged proteins through temperature-dependent protein–peptide interaction” (Communications Biology, 2019).
One block for each binder: values may come before it.

Assays:
GST-cCRY4CCE = target: T1, GST-cCRY4CCE (chicken); experiment: ELISA; MBP-C13scFv-His refolded at various pH, dialysed against PBS pH 7.4, titrated on cCRY4CCE; detected with anti-6xHis antibody; EC50 by the Rodbard model
T1 construct: chicken cryptochrome 4 (cCRY4) C-terminal region, Asp470-Thr529; also called cCRY4 C-terminal extension (CCE)
T1 chain: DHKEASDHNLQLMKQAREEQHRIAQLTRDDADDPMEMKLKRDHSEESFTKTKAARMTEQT

[1] = target: T2, recombinant chicken cryptochrome 4, full-length, untagged (chicken); experiment: pull-down; renatured MBP-THETAL-His immobilised on Affi-Gel 15; crude extract mixed with the gel at 4 °C, washed, eluted by warming to 42 °C or 37 °C; conditions: one partner purified
T2 construct: chicken cryptochrome 4 (cCRY4); last residue Thr529; calculated molecular mass 61,063 Da; also called cCRY4; non-tagged cCRY4; source: budding yeast MaV203, overexpressed, in soluble extract
T2 chain: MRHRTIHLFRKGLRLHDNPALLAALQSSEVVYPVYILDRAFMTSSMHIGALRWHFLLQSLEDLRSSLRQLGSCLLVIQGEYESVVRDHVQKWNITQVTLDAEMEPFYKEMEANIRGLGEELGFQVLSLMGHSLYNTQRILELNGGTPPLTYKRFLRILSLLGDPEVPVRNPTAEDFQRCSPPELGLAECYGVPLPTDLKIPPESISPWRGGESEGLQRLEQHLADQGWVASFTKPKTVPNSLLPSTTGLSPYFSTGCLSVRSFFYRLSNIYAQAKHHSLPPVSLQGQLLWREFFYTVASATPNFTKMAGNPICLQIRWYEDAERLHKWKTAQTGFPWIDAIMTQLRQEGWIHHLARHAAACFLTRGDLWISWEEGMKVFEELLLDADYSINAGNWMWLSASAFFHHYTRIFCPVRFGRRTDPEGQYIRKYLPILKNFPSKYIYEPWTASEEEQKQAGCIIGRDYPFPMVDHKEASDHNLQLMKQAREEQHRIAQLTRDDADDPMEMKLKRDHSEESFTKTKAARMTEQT

[2] = target: C13 monoclonal antibody (mouse); experiment: ELISA; indirect competitive ELISA at 4, 15, 26 and 37 °C; antibody mixed with serially diluted antigen until equilibrium, then 15 min on a well coated with GST-cCRY4CCE (1 μg/mL for C13 mAb); SM/TBS; affinity constants by fit to a model formula

binding result (GST-cCRY4CCE): binds
binding result [1]: binds
B1: MBP-C13scFv-His (scFv, V domains shown)
VH: EVKLEESGGGLVQPGGSLRLSCATSGFTFTDYYMSWVRQPPGKALEWLGFIRNKANVYTTEYSASVKGRFTISRDNSQSILYLQMNTLRAEDSATYYCARDGGYDDGGYAMDYWGQGTSVTVSS
VL: DIVMTQSHKFMSTSVGDRVSITCKASQDVGTAVAWYQQKPGQSPKLLIYWASTRHTGVPDRFTGSGSGTDFTLTISNVQSEDLADYFCQQYSSYPYTFGGGTKLEIK
notes: C13 variable light (VL); (GGGGS)3 linker; C13 variable heavy (VH); Order VL-linker-VH in pET-22b(+); also called MBP-THETAL-His; THETAL; not shown: MBP, N-terminal, kept; His6, C-terminal, kept

fold of the affinity constant at 4 °C over that at 37 °C [2]: 480 times
Binder: TKTKAARMTEQT [GST-CT9]
